Laboratory results from the supplement of paper PMC7877785.
± gives the uncertainty stated by the source.

Assay: self-splicing fitness, log relative to wild type (ln ratio); higher = more splicing; Tetrahymena group I intron in knt gene, E. coli kanamycin selection, DiMSum; sequences stand for … in CUCUCU…GGAGGGAAAAGUUAUCAGGCAUGCACCUGGUAGCUAGUCUUUAAACCAAUAGAUUGCAUCGGUUUAAAAGGCAAGACCGUCAAAUUGCGGGAAAGGGGUCAACAGCCGUUCAGUACCAAGUCUCAGGGGAAACUUUGAGAUGGCCUUGCAAAGGGUAUGGUAAUAAGCUGACGGACAUGGUCCUAACCACGCAGCCAAGUCCUAAGUCAACAGAUCUUCUGUUGAUAUGGAUGCAGUUCACAGACUAAAUGUCGGUCGGGGAAGAUGUAUUCUUCUCAUAAGAUAUAGUCGGACCUCUCCUUAAUGGGAGCUAGCGGAUGAAGUGAUGCAACACUGGAGCCGCUGGGAACUAAUUUGUAUGCGAAAGUAUAUUGAUUAGUUUUGGAGUACUCGUGGUCG
In short: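 Library with all eight P1ex-region intron nucleotides randomised, intron inside the knt kanamycin-resistance gene on pET-22b(+), in E. coli BL21(DE3). Cells grew overnight at 37°C or 30°C on LB agar with or without 25 μg/mL kanamycin (plus 100 μg/mL carbenicillin, 50 μM IPTG, 0.2% rhamnose), in six replicate transformations. Pooled colonies were amplicon-sequenced on Illumina HiSeq 2500. DiMSum fitness is the error-weighted combination of wild-type-normalised replicate fold changes, kanamycin versus none.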

| Sequence | self-splicing fitness (ln) (30 °C) | self-splicing fitness (ln) (37 °C) |
| --- | --- | --- |
| GGCGAGCAAUAUUACGAAGG | -3.8 ± 0.27 | -2.88 ± 0.4 |
| GGCGAGCAAUAUUACGAGGC | -3.5 ± 0.23 | -3.02 ± 0.27 |
| GGCGAGCAAUAUUACGAUUC | -0.495 ± 0.1 | 0.463 ± 0.14 |
| GGCGAGCAAUAUUACGCAAG | -2.96 ± 0.34 | -2.3 ± 0.24 |
| GGCGAGCAAUAUUACGCCAA | – | -2.45 ± 0.49 |
| GGCGAGCAAUAUUACGCCGU | -3.44 ± 0.47 | -1.28 ± 0.45 |
| GGCGAGCAAUAUUACGCCUA | – | -1.76 ± 0.23 |
| GGCGAGCAAUAUUACGCUGG | -1.39 ± 0.36 | – |
| GGCGAGCAAUAUUACGCUGU | -2.63 ± 0.22 | -2.66 ± 0.27 |
| GGCGAGCAAUAUUACGGAUU | -1.21 ± 0.17 | -1.06 ± 0.24 |
| GGCGAGCAAUAUUACGGCAA | -0.896 ± 0.19 | -0.442 ± 0.2 |
| GGCGAGCAAUAUUACGGGGA | -2.39 ± 0.2 | -2.29 ± 0.29 |
| GGCGAGCAAUAUUACGGGGC | -3.65 ± 0.29 | -2.96 ± 0.34 |
| GGCGAGCAAUAUUACGGUAA | -2.66 ± 0.16 | -1.77 ± 0.2 |
| GGCGAGCAAUAUUACGGUAC | -2.08 ± 0.17 | -1.98 ± 0.19 |
| GGCGAGCAAUAUUACGUAGA | -2.07 ± 0.093 | -1.27 ± 0.12 |
| GGCGAGCAAUAUUACGUCAA | -3.73 ± 0.34 | -1.71 ± 0.15 |
| GGCGAGCAAUAUUACGUCUU | -0.851 ± 0.047 | -0.197 ± 0.06 |
| GGCGAGCAAUAUUACGUGUA | -2.41 ± 0.15 | -1.16 ± 0.14 |
| GGCUAGCAAUAUUACGAAGA | -2.05 ± 0.43 | -0.778 ± 0.36 |
| GGCUAGCAAUAUUACGACAG | -2.88 ± 0.35 | -1.85 ± 0.34 |
| GGCUAGCAAUAUUACGACAU | -0.413 ± 0.013 | 0.0789 ± 0.033 |
| GGCUAGCAAUAUUACGAUAU | -1.79 ± 0.17 | -1.84 ± 0.16 |
| GGCUAGCAAUAUUACGAUCC | 0.227 ± 0.47 | – |
| GGCUAGCAAUAUUACGAUGG | – | -2.46 ± 0.23 |

| Sequence | self-splicing fitness (ln) (30 °C) | self-splicing fitness (ln) (37 °C) |
| --- | --- | --- |
| GGCUAGCAAUAUUACGCACG | -0.276 ± 0.093 | -0.119 ± 0.1 |
| GGCUAGCAAUAUUACGCCCU | – | 0.0828 ± 0.36 |
| GGCUAGCAAUAUUACGCCUA | -0.205 ± 0.23 | -1.69 ± 0.3 |
| GGCUAGCAAUAUUACGCCUU | – | -0.73 ± 0.19 |
| GGCUAGCAAUAUUACGCGGA | -0.936 ± 0.22 | -0.393 ± 0.22 |
| GGCUAGCAAUAUUACGCGUG | -0.672 ± 0.071 | -1.13 ± 0.083 |
| GGCUAGCAAUAUUACGCUUC | -2.51 ± 0.21 | -1.61 ± 0.26 |
| GGCUAGCAAUAUUACGCUUG | -3.03 ± 0.19 | -2.19 ± 0.19 |
| GGCUAGCAAUAUUACGGACA | -0.485 ± 0.091 | -0.398 ± 0.098 |
| GGCUAGCAAUAUUACGGCUG | 0.0242 ± 0.097 | -0.992 ± 0.12 |
| GGCUAGCAAUAUUACGUACU | -0.354 ± 0.077 | 0.312 ± 0.11 |
| GGCUAGCAAUAUUACGUAUC | -0.368 ± 0.098 | -0.254 ± 0.12 |
| GGCUAGCAAUAUUACGUCAG | -2.81 ± 0.45 | – |
| GGCUAGCAAUAUUACGUCUU | -0.274 ± 0.075 | 0.396 ± 0.088 |
| GGCUAGCAAUAUUACGUGAG | -1.21 ± 0.087 | -0.194 ± 0.092 |
| GGCUAGCAAUAUUACGUGGA | -1.81 ± 0.14 | -0.667 ± 0.12 |
| GGCUAGCAAUAUUACGUGUA | -0.9 ± 0.093 | -0.236 ± 0.095 |
| GGCUAGCAAUAUUACGUUCU | -0.249 ± 0.082 | -0.358 ± 0.1 |
| GGGAAGCAAUAUUACGAAGC | -2.84 ± 0.23 | -1.75 ± 0.34 |
| GGGAAGCAAUAUUACGAAUC | -0.774 ± 0.11 | -0.499 ± 0.14 |
| GGGAAGCAAUAUUACGACAU | -0.662 ± 0.015 | -0.341 ± 0.034 |
| GGGAAGCAAUAUUACGACGA | -0.787 ± 0.093 | 0.0557 ± 0.11 |
| GGGAAGCAAUAUUACGAGGG | -4.09 ± 0.24 | -2.67 ± 0.19 |
| GGGAAGCAAUAUUACGCAUU | -2.94 ± 0.34 | -1.53 ± 0.44 |
| GGGAAGCAAUAUUACGCCCG | – | 0.0331 ± 0.36 |

| Sequence | self-splicing fitness (ln) (30 °C) | self-splicing fitness (ln) (37 °C) |
| --- | --- | --- |
| GGGAAGCAAUAUUACGCGUU | -2.67 ± 0.24 | -1.49 ± 0.2 |
| GGGAAGCAAUAUUACGGCAG | -2.64 ± 0.34 | – |
| GGGAAGCAAUAUUACGGCGA | -0.443 ± 0.12 | 0.0664 ± 0.12 |
| GGGAAGCAAUAUUACGGCGC | -2.22 ± 0.1 | -1.1 ± 0.053 |
| GGGAAGCAAUAUUACGGCGU | -0.0838 ± 0.13 | -0.241 ± 0.14 |
| GGGAAGCAAUAUUACGGUAA | -3.01 ± 0.41 | -0.554 ± 0.17 |
| GGGAAGCAAUAUUACGGUCA | -0.346 ± 0.1 | -0.237 ± 0.11 |
| GGGAAGCAAUAUUACGUGAA | -2.39 ± 0.18 | -0.692 ± 0.17 |
| GGGAAGCAAUAUUACGUGCA | -1.36 ± 0.1 | 0.0267 ± 0.12 |
| GGGAAGCAAUAUUACGUGGG | -3.64 ± 0.29 | -2.46 ± 0.24 |
| GGGAAGCAAUAUUACGUGUC | -3.63 ± 0.24 | -2.28 ± 0.2 |
| GGGAAGCAAUAUUACGUUAG | -2.72 ± 0.27 | -0.794 ± 0.24 |
| GGGAAGCAAUAUUACGUUCU | -3.66 ± 0.22 | -3.52 ± 0.25 |
| GGGAAGCAAUAUUACGUUGG | -3.77 ± 0.3 | -1.1 ± 0.24 |
| GGGAAGCAAUAUUACGUUUG | -2.72 ± 0.22 | -1.74 ± 0.21 |
| GGGCAGCAAUAUUACGAAAG | -3.58 ± 0.28 | -2.92 ± 0.35 |
| GGGCAGCAAUAUUACGACAU | -0.411 ± 0.013 | 0.0276 ± 0.033 |
| GGGCAGCAAUAUUACGACUC | 0.392 ± 0.12 | 0.247 ± 0.17 |
| GGGCAGCAAUAUUACGAGGU | -4.65 ± 0.38 | -2.77 ± 0.24 |
| GGGCAGCAAUAUUACGAGUU | -2.81 ± 0.2 | -1.27 ± 0.22 |
| GGGCAGCAAUAUUACGAUGC | -1.98 ± 0.2 | -1.11 ± 0.24 |
| GGGCAGCAAUAUUACGCAAU | -0.2 ± 0.071 | -0.127 ± 0.085 |
| GGGCAGCAAUAUUACGCACU | -1.6 ± 0.32 | -1.42 ± 0.24 |
| GGGCAGCAAUAUUACGCAGG | -2.6 ± 0.18 | -1.03 ± 0.19 |
| GGGCAGCAAUAUUACGCAGU | -0.715 ± 0.14 | -0.784 ± 0.18 |

| Sequence | self-splicing fitness (ln) (30 °C) | self-splicing fitness (ln) (37 °C) |
| --- | --- | --- |
| GGGCAGCAAUAUUACGCCUA | -0.197 ± 0.12 | 0.428 ± 0.14 |
| GGGCAGCAAUAUUACGCGGA | -1.23 ± 0.15 | -0.758 ± 0.1 |
| GGGCAGCAAUAUUACGCGUA | -0.501 ± 0.077 | -0.0324 ± 0.077 |
| GGGCAGCAAUAUUACGCUUA | 0.359 ± 0.12 | 0.25 ± 0.15 |
| GGGCAGCAAUAUUACGGAGG | -4.42 ± 0.26 | -3.03 ± 0.23 |
| GGGCAGCAAUAUUACGGAUC | -0.301 ± 0.057 | 0.486 ± 0.076 |
| GGGCAGCAAUAUUACGGCCA | 0.461 ± 0.14 | 0.258 ± 0.17 |
| GGGCAGCAAUAUUACGGUUG | -1.94 ± 0.12 | -1.11 ± 0.13 |
| GGGCAGCAAUAUUACGUAAU | -0.917 ± 0.063 | 0.209 ± 0.085 |
| GGGCAGCAAUAUUACGUACA | -0.35 ± 0.084 | -0.0196 ± 0.1 |
| GGGCAGCAAUAUUACGUACG | -0.697 ± 0.12 | -0.0767 ± 0.14 |
| GGGCAGCAAUAUUACGUAUC | -0.951 ± 0.068 | -0.0249 ± 0.1 |
| GGGCAGCAAUAUUACGUCCA | -1.17 ± 0.23 | -1.01 ± 0.28 |
| GGGCAGCAAUAUUACGUGAC | -0.997 ± 0.13 | -1.03 ± 0.21 |
| GGGCAGCAAUAUUACGUGAG | -0.483 ± 0.085 | -0.435 ± 0.1 |
| GGGCAGCAAUAUUACGUGUU | -1.64 ± 0.072 | -0.906 ± 0.08 |
| GGGGAGCAAUAUUACGAACA | -1.6 ± 0.35 | -0.419 ± 0.28 |
| GGGGAGCAAUAUUACGACAU | -2.17 ± 0.022 | -1.15 ± 0.037 |
| GGGGAGCAAUAUUACGACCA | -0.254 ± 0.14 | 0.709 ± 0.23 |
| GGGGAGCAAUAUUACGCAAG | -3.34 ± 0.26 | -1.28 ± 0.2 |
| GGGGAGCAAUAUUACGCAGA | – | -2.07 ± 0.47 |
| GGGGAGCAAUAUUACGCCAA | – | -0.647 ± 0.44 |
| GGGGAGCAAUAUUACGCCAU | – | -1.58 ± 0.32 |
| GGGGAGCAAUAUUACGCGAA | -2.75 ± 0.4 | 0.457 ± 0.31 |
